PMC2756588

Key:
Assay in all cases: SPOT array
Cdc25, P04821 = target: T1, Cdc25, P04821; details: median of control spots 969
T1 sequence (P04821 50-136, looked up): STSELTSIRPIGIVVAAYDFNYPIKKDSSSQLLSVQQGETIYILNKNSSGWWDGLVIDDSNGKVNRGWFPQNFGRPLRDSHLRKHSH

GST = details: median of control spots 978
Boi1, P38041 = target: T2, Boi1, P38041; details: median of control spots 1162
T2 sequence (P38041 1-86, looked up): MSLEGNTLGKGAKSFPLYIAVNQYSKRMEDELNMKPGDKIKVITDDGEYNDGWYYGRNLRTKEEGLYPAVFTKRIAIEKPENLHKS

Pex13, P80667 = target: T3, Pex13, P80667; details: median of control spots 1341
T3 sequence (P80667 295-386, looked up): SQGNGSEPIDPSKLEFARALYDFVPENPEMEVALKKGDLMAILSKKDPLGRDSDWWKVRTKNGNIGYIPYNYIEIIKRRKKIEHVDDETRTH

Fus1, P11710 = target: T4, Fus1, P11710; details: median of control spots 1200
T4 sequence (P11710 432-512, looked up): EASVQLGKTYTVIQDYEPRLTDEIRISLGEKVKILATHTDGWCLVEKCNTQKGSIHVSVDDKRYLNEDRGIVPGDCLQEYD

Hof1, Q05080 = target: T5, Hof1, Q05080; details: median of control spots 4086
T5 sequence (Q05080 590-669, looked up): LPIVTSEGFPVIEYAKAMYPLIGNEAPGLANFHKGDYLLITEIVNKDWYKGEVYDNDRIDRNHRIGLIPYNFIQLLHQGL

Hse1, P38753 = target: T6, Hse1, P38753; details: median of control spots 1727
T6 sequence (P38753 208-285, looked up): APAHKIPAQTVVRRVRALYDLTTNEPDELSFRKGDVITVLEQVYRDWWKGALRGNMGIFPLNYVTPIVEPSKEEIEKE

Rvs167, P39743 = details: median of control spots 2707
Lsb4, P32793 = target: T7, Lsb4, P32793; details: median of control spots 397
T7 sequence (P32793 402-468, looked up): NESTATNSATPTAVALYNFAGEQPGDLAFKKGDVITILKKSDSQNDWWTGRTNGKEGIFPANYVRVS

Nbp2, Q12163 = target: T8, Nbp2, Q12163; details: median of control spots 357
T8 sequence (Q12163 103-180, looked up): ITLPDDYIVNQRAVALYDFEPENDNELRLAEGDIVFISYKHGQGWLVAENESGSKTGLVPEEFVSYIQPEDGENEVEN

Bud14, P27637 = target: T9, Bud14, P27637; details: median of control spots 956
T9 sequence (P27637 247-328, looked up): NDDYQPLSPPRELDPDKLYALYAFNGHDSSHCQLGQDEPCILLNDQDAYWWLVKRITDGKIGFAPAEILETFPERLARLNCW

Pin3, Q06449 = target: T10, Pin3, Q06449; details: median of control spots 2171
T10 sequence (Q06449 53-122, looked up): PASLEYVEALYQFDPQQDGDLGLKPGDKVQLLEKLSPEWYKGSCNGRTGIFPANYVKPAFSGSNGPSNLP

Lsb1, P53281 = target: T11, Lsb1, P53281; details: median of control spots 388
T11 sequence (P53281 45-122, looked up): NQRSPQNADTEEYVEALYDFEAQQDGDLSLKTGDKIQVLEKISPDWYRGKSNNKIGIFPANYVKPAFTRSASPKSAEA

Boi2, P39969 = target: T12, Boi2, P39969; details: median of control spots 1161
T12 sequence (P39969 32-116, looked up): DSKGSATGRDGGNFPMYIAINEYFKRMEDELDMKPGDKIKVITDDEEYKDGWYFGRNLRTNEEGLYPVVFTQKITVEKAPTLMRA

Bzz1-2, P38822 = target: T13, Bzz1-2, P38822; details: median of control spots 4538
T13 sequence (P38822 568-633, looked up): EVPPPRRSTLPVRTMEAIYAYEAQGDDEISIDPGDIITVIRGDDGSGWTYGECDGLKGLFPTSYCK

Bzz1-1, P38822 = target: T14, Bzz1-1, P38822; details: median of control spots 4446
T14 sequence (P38822 478-572, looked up): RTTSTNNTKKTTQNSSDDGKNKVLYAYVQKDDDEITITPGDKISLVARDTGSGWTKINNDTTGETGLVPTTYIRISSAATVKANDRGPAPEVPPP

Myo5, Q04439 = target: T15, Myo5, Q04439; details: median of control spots 471
T15 sequence (Q04439 1072-1160, looked up): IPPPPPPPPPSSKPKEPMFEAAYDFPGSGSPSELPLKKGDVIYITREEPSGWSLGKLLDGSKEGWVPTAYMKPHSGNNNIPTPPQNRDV

Sla1-2, P32790 = target: T16, Sla1-2, P32790; details: median of control spots 712
T16 sequence (P32790 60-140, looked up): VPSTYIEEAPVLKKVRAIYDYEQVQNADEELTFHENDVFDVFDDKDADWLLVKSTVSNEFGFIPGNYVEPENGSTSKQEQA

Bem1-1, P29366 = details: median of control spots 4282
Abp1, P15891 = target: T17, Abp1, P15891; details: median of control spots 935
T17 sequence (P15891 535-592, looked up): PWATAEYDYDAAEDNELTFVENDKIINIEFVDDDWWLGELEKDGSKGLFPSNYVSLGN

Lsb3, P43603 = target: T18, Lsb3, P43603; details: median of control spots 406
T18 sequence (P43603 385-451, looked up): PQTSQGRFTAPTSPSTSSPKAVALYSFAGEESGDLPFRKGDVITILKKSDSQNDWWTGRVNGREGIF

Sla1-3, P32790 = target: T19, Sla1-3, P32790; details: median of control spots 5475
T19 sequence (P32790 344-424, looked up): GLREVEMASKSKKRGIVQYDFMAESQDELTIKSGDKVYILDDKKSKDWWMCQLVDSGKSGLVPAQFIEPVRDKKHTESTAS

Bem1-2, P29366 = details: median of control spots 4347
Sho1, P40073 = details: median of control spots 1148
Cyk3, Q07533 = target: T20, Cyk3, Q07533; details: median of control spots 1451
T20 sequence (Q07533 1-83, looked up): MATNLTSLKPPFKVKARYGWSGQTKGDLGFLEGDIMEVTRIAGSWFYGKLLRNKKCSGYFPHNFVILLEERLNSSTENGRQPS

Bbc1, P47068 = target: T21, Bbc1, P47068; details: median of control spots 796
T21 sequence (P47068 1-78, looked up): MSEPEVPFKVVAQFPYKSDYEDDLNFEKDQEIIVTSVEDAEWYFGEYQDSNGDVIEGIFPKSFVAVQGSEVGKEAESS

Myo3, P36006 = details: median of control spots 468

Sequence of Bem1-2, P29366 (P29366 139-227): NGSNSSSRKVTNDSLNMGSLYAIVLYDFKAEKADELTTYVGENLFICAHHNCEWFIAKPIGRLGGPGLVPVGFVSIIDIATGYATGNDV
Sequence of Rvs167, P39743 (P39743 419-482): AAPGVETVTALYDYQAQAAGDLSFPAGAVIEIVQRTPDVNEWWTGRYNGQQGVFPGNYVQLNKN
Sequence of Bem1-1, P29366 (P29366 55-141): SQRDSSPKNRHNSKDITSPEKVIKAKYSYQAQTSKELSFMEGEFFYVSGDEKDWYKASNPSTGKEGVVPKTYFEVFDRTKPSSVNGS
Sequence of Sho1, P40073 (P40073 287-367): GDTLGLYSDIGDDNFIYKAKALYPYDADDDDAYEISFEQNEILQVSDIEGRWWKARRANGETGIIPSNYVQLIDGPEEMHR

B1: unnamed (peptide)
chain: ISRRRLPVIMHRLKM
SPOT intensity (Cdc25, P04821): 51
SPOT intensity (GST): 0
SPOT intensity (Boi1, P38041): 1
SPOT intensity (Pex13, P80667): 22
SPOT intensity (Fus1, P11710): 15
SPOT intensity (Hof1, Q05080): 9
SPOT intensity (Hse1, P38753): 17
SPOT intensity (Rvs167, P39743): 21
SPOT intensity (Lsb4, P32793): 21
SPOT intensity (Nbp2, Q12163): 5
SPOT intensity (Bud14, P27637): 2
SPOT intensity (Pin3, Q06449): 27
SPOT intensity (Lsb1, P53281): 137
SPOT intensity (Boi2, P39969): 1
SPOT intensity (Bzz1-2, P38822): 5
SPOT intensity (Bzz1-1, P38822): 0
SPOT intensity (Myo5, Q04439): 2
SPOT intensity (Sla1-2, P32790): 1
SPOT intensity (Bem1-1, P29366): 0
SPOT intensity (Abp1, P15891): 90
SPOT intensity (Lsb3, P43603): 2
SPOT intensity (Sla1-3, P32790): 20
SPOT intensity (Bem1-2, P29366): 16
SPOT intensity (Sho1, P40073): 112
SPOT intensity (Cyk3, Q07533): 0
SPOT intensity (Bbc1, P47068): 26
SPOT intensity (Myo3, P36006): 7

B2: unnamed (peptide)
chain: LRIKRKPVQTFFEFI
SPOT intensity (Cdc25, P04821): 271
SPOT intensity (GST): 1
SPOT intensity (Boi1, P38041): 11
SPOT intensity (Pex13, P80667): 13
SPOT intensity (Fus1, P11710): 16
SPOT intensity (Hof1, Q05080): 7
SPOT intensity (Hse1, P38753): 25
SPOT intensity (Rvs167, P39743): 2
SPOT intensity (Lsb4, P32793): 12
SPOT intensity (Nbp2, Q12163): 46
SPOT intensity (Bud14, P27637): 17
SPOT intensity (Pin3, Q06449): 5
SPOT intensity (Lsb1, P53281): 4
SPOT intensity (Boi2, P39969): 1
SPOT intensity (Bzz1-2, P38822): 0
SPOT intensity (Bzz1-1, P38822): 0
SPOT intensity (Myo5, Q04439): 0
SPOT intensity (Sla1-2, P32790): 0
SPOT intensity (Bem1-1, P29366): 1
SPOT intensity (Abp1, P15891): 102
SPOT intensity (Lsb3, P43603): 0
SPOT intensity (Sla1-3, P32790): 9
SPOT intensity (Bem1-2, P29366): 4
SPOT intensity (Sho1, P40073): 173
SPOT intensity (Cyk3, Q07533): 1
SPOT intensity (Bbc1, P47068): 54
SPOT intensity (Myo3, P36006): 8

B3: unnamed (peptide)
chain: VRVKKRPLIRPLNSS
SPOT intensity (Cdc25, P04821): 127
SPOT intensity (GST): 1
SPOT intensity (Boi1, P38041): 2
SPOT intensity (Pex13, P80667): 4
SPOT intensity (Fus1, P11710): 6
SPOT intensity (Hof1, Q05080): 0
SPOT intensity (Hse1, P38753): 14
SPOT intensity (Rvs167, P39743): 7
SPOT intensity (Lsb4, P32793): 16
SPOT intensity (Nbp2, Q12163): 9
SPOT intensity (Bud14, P27637): 16
SPOT intensity (Pin3, Q06449): 1
SPOT intensity (Lsb1, P53281): 9
SPOT intensity (Boi2, P39969): 3
SPOT intensity (Bzz1-2, P38822): 11
SPOT intensity (Bzz1-1, P38822): 1
SPOT intensity (Myo5, Q04439): 1
SPOT intensity (Sla1-2, P32790): 2
SPOT intensity (Bem1-1, P29366): 0
SPOT intensity (Abp1, P15891): 301
SPOT intensity (Lsb3, P43603): 6
SPOT intensity (Sla1-3, P32790): 22
SPOT intensity (Bem1-2, P29366): 0
SPOT intensity (Sho1, P40073): 188
SPOT intensity (Cyk3, Q07533): 2
SPOT intensity (Bbc1, P47068): 201
SPOT intensity (Myo3, P36006): 8
